Laboratory results as given in paper PMC4288179, “Synergic interplay of the La motif, RRM1 and the interdomain linker of LARP6 in the recognition of collagen mRNA expands the RNA binding repertoire of the La module”.

Legend:
RRM1 chimera = target: T1, RRM1 chimera (Homo sapiens, UniProt Q9BRS8 70-179+P05455:111-202, internal_change); assay: ITC; ITC: 20 mM Tris pH 7.25, 100 mM KCl, 5 mM MgCl2, 1 mM DTT, 298 K; protein titrated into RNA; conditions: protein: recombinant; tags: N-terminal His6 (TEV-cleavable); stem-loop with internal bulge
T1 sequence: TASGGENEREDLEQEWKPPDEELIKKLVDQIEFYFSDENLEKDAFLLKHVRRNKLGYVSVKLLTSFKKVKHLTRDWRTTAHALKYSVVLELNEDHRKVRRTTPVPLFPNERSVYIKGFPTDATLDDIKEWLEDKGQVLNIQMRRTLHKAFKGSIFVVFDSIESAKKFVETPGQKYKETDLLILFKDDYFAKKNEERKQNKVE

HsLARP6(70-300) D112A = target: T2, HsLARP6(70-300) D112A (Homo sapiens, UniProt Q9BRS8 70-300, D112A); assay: as above; conditions: protein: recombinant; tags: N-terminal His6 (TEV-cleavable); stem-loop with internal bulge
T2 sequence: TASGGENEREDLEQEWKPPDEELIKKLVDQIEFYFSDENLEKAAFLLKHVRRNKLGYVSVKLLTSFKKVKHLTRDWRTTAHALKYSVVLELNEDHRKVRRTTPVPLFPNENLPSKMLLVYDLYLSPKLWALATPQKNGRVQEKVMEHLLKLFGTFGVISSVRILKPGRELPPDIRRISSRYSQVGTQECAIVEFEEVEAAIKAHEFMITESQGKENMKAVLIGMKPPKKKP

HsLARP6(70-295) = target: T3, HsLARP6(70-295) (Homo sapiens, UniProt Q9BRS8 70-295); assay: as above; conditions: protein: recombinant; tags: N-terminal His6 (TEV-cleavable); stem-loop with internal bulge
T3 sequence: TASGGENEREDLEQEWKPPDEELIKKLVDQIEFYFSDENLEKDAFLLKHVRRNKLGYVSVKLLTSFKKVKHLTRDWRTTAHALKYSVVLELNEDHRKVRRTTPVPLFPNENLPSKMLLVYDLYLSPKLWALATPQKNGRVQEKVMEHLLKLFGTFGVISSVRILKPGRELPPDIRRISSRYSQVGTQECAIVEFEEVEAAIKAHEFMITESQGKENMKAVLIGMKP

HsLARP6(70-300) Y103A = target: T4, HsLARP6(70-300) Y103A (Homo sapiens, UniProt Q9BRS8 70-300, Y103A); assay: as above; conditions: protein: recombinant; tags: N-terminal His6 (TEV-cleavable); stem-loop with internal bulge
T4 sequence: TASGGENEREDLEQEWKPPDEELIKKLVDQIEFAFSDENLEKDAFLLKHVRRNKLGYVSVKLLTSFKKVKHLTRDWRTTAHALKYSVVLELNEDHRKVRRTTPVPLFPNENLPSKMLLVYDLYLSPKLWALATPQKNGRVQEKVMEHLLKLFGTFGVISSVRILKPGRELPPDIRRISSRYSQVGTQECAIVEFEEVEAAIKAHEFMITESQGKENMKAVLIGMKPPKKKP

HsLARP6(70-300) F102A = target: T5, HsLARP6(70-300) F102A (Homo sapiens, UniProt Q9BRS8 70-300, F102A); assay: as above; conditions: protein: recombinant; tags: N-terminal His6 (TEV-cleavable); stem-loop with internal bulge
T5 sequence: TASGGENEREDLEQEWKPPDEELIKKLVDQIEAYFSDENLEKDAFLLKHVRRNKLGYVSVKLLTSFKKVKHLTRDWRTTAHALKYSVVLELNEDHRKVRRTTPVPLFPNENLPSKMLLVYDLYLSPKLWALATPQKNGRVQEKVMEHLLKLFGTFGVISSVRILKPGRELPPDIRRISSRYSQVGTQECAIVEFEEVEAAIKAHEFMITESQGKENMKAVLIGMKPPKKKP

HsLARP6(70-300) K86A = target: T6, HsLARP6(70-300) K86A (Homo sapiens, UniProt Q9BRS8 70-300, K86A); assay: as above; conditions: protein: recombinant; tags: N-terminal His6 (TEV-cleavable); stem-loop with internal bulge
T6 sequence: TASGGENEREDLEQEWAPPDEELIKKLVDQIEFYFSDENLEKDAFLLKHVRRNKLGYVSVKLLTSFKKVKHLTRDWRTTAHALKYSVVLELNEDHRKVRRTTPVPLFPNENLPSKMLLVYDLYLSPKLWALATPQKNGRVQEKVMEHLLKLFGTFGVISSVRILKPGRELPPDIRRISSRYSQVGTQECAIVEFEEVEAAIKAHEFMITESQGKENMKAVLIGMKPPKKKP

[1] = target: T7, HsLARP6 La module (70-300) (Homo sapiens, UniProt Q9BRS8 70-300); assay: ITC; 200 mM KCl; ITC: 20 mM Tris pH 7.25, 100 mM KCl, 5 mM MgCl2, 1 mM DTT, 298 K; protein titrated into RNA; conditions: protein: recombinant; tags: N-terminal His6, TEV-cleaved for initial ITC; stem-loop with internal bulge
T7 sequence: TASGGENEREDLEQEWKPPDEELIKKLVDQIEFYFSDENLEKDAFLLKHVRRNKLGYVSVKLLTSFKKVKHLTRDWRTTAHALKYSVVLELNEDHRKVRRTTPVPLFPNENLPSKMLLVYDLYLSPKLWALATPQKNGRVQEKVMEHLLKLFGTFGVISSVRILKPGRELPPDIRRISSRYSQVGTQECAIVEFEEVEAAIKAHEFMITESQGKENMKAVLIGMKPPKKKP

Interlinker chimera = target: T8, Interlinker chimera (Homo sapiens, UniProt Q9BRS8 70-178+P05455:101-111+181-300, internal_change); assay: ITC; text says 500-fold decrease; table gives about 14-fold; ITC: 20 mM Tris pH 7.25, 100 mM KCl, 5 mM MgCl2, 1 mM DTT, 298 K; protein titrated into RNA; conditions: protein: recombinant; tags: N-terminal His6 (TEV-cleavable); stem-loop with internal bulge
T8 sequence: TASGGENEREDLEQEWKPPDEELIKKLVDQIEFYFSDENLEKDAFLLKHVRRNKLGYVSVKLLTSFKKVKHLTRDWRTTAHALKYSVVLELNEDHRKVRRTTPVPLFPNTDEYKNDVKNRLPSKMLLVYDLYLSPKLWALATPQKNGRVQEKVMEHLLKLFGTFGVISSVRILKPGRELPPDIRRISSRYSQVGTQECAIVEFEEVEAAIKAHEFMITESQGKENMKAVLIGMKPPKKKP

B1: 48 nt RNA (collagen alpha1(I) 5' UTR SL) (structured_RNA)
RNA: CCACAAAGAGUCUACAUGUCUAGGGUCUAGACAUGUUCAGCUUUGUGG
RRM1 chimera
  binding result: no binding
HsLARP6(70-300) D112A
  Kd: 172 nM
HsLARP6(70-295)
  Kd: 77 nM
HsLARP6(70-300) Y103A
  binding result: no binding
HsLARP6(70-300) F102A
  binding result: no binding
HsLARP6(70-300) K86A
  Kd: 77 nM
[1]
  Kd: 50 nM
Interlinker chimera
  Kd: 667 nM
